Test results: article PMC11559096

Tests used:
[1] = molecular target: MHV-2 spike (S) protein, uncleaved 180 kDa, on authentic virus (mouse hepatitis virus type 2 (MHV-2)); test: SDS-PAGE of samples heated in 1% SDS (dissociation temperature of the trimer); receptor-binding state (MHV-2 with soluble receptor), with or without HR2-peptide; 5 mM Pefabloc SC and 1% SDS on ice, then 10 min at the indicated temperatures; western blot with MAb10G; trimer to monomers
[2] = molecular target: MHV-2 spike (S) protein, uncleaved 180 kDa, on authentic virus (mouse hepatitis virus type 2 (MHV-2)); test: SDS-PAGE of samples heated in 1% SDS (dissociation temperature of the trimer); pre-fusion state (untreated MHV-2), with or without HR2-peptide; 5 mM Pefabloc SC and 1% SDS on ice, then 10 min at the indicated temperatures; western blot with MAb10G; trimer to monomers
[3] = molecular target: MHV-2 S2 fragments made by trypsin after receptor binding (69 and 67 kDa) (mouse hepatitis virus type 2 (MHV-2)); test: SDS-PAGE of samples heated in 1% SDS (dissociation temperature of the trimer); post-fusion state (MHV-2 with receptor, then trypsin at 37°C), no HR2-peptide; 5 mM Pefabloc SC and 1% SDS on ice, then 10 min at the indicated temperatures; western blot with MAb10G; trimer to monomers
[4] = molecular target: MHV-2 S2 fragments made by trypsin after receptor binding (69 and 67 kDa) (mouse hepatitis virus type 2 (MHV-2)); test: SDS-PAGE of samples heated in 1% SDS (dissociation temperature of the trimer); MHV-2 with receptor, then trypsin at 37°C, in the presence of the HR2-peptide; 5 mM Pefabloc SC and 1% SDS on ice, then 10 min at the indicated temperatures; western blot with MAb10G; trimer to monomers

Substance	dissociation temperature of the trimer in 1% SDS [1]	dissociation temperature of the trimer in 1% SDS [2]	stoichiometry N [2]	dissociation temperature of the trimer in 1% SDS [3]	stoichiometry N [3]	dissociation temperature of the trimer in 1% SDS [4]
MHV-2 spike (S) protein, uncleaved 180 kDa, on authentic virus (natural protein)	65 °C	< 25 °C	3			
MHV-2 S2 fragments made by trypsin after receptor binding (69 and 67 kDa) (domain or fragment)				100 °C	3	80 °C
